Data on 5 molecules can be found in patent CN114106164A (HANGZHOU PINK BIOTECHNOLOGY LTD COMPANY, dated 2022).

B1: Mouse anti-SARS-COV-2 Mab1(RBD-Ab) (antibody, V domains shown)
VH: VKLQESGAELVRPGTSVKVSCKASGYAFTNYLIEWVKQRPGQGLEWIGVINPGSGGTNYNEKFKGKATLTADKSSSTAYMQLSSLTSDDSAVYFCARGRADYWGQGTSVTVSS
VL: DILMTQSPSSMSVSLGDTVSITCHASQGFSSNIGWLQQKPGKSFKGLIYHGTNLEDGVPSRFSGSGSGADYSLTISSLESEDFADYYCVQYAQFPYTFGGGTKLEIK
notes: also called B1-5; B1-5号抗体
B2: B1-2 (antibody, V domains shown)
VH: QVQLVESGGGFVQPGGSLRLSCAVSGGTFSTYGMGWFRQAPGKEREIVAAIRRSGSTYYADSVRGRFTISRDNAKNSVLLQMNSLKPEDTAVYYCAARRAGREYEYWGQGTQVTVSS
B3: A2-2 (antibody, V domains shown)
VH: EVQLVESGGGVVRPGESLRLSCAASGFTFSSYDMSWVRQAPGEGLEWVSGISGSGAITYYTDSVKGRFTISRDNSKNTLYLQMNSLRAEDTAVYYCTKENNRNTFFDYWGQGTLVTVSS
VL: EIVLTQSPGTLSLSPGERATLSCRASQTVRSDLAWYQQKPGQAPRLLIYGASTRATDISDRFSGSGSGTEFTLTISSLQSEDFAVYYCQQYYEWPPHSDSFGGGTKVEIK
B4: A2-4 (antibody, V domains shown)
VH: EVKLMESGGGLVQPGGSLKLSCAASGFDFSRYWMSWVRQAPGEGLEWIGEINPDSSTISYTPSLKDKFIISRDNAKNTLYLQMSKVRSEDTALYYCARRGLLLLTMDYWGQGTSVTVSS
VL: DIVMTQSPKSLSMSVGERVTLSCKASENVDTYVSWYQQKPEQSPKLLIYGASNRYTGVPDRFTGSGSATYFTLTISSVQAEDLADYHCGQTYSYPFTFGSGTKLEIK
B5: B1-1 (antibody, V domains shown)
VH: QVQLVESGGGLVQPGGSLRLSCAASGFTFDDYAMSWVRQAPGKGLEWVSNIYSYISTTHYADSVKGRFTISTDNAKNTLYLQMNSLKPEDTAVYYCAARRLDTTDYKYWGQGTQVTVSS

One test concerns the target T1, MERS-CoV Spike/RBD Protein fragment(RBD,aa 367-606,His Tag)，货号40071-V08B1 (MERS-CoV, UniProt K9N5Q8 367-606).
T1 construct: range 367-606; Bought reagent
The experiment in a line: ELISA, cross-reactivity test.
For B1, the binding result was “no binding”.

A further test addresses T2, SARS-CoV Spike/RBD Protein(RBD,His Tag)，货号40150-V08B2 (SARS-CoV, UniProt P59594 306-527).
T2 construct: domain: RBD
The experiment in a line: ELISA, cross-reactivity test. On the technique in general: In an ELISA, binding on a coated surface is turned into a signal by an enzyme label.
As for B1, the binding result was “no binding”.

The target in another test is T3, SARS-CoV-2-RBD蛋白 (重组6X His标记的RBD蛋白) (SARS-CoV-2, UniProt P0DTC2 319-541). The experiment in a line: indirect ELISA, purified antibody, antigen coated 3ug/ml.
For B2, the “ELISA OD at 1.28ng/ml” value was 0.073, the “ELISA OD at 6.4ng/ml” value stood at 0.085, the “ELISA OD at 32ng/ml” value amounted to 0.127 and the “ELISA OD at 160ng/ml” value turned out to be 0.26. Also, the “ELISA OD at 800ng/ml” value turned out to be 0.647, the “ELISA OD at 4ug/ml” value was 1.49 and the “ELISA OD at 20ug/ml” value came out at 2.04.
In the case of B3, the “ELISA OD at 1.28ng/ml” value is 0.115, the “ELISA OD at 6.4ng/ml” value is 0.229, the “ELISA OD at 32ng/ml” value came out at 0.447 and the “ELISA OD at 160ng/ml” value amounted to 0.689. Besides, the “ELISA OD at 800ng/ml” value worked out at 1.27, the “ELISA OD at 4ug/ml” value amounted to 1.62 and the “ELISA OD at 20ug/ml” value was found to be 1.72.
Turning to B4, the “ELISA OD at 1.28ng/ml” value came to 0.106, the “ELISA OD at 6.4ng/ml” value amounted to 0.126, the “ELISA OD at 32ng/ml” value was found to be 0.149 and the “ELISA OD at 160ng/ml” value was determined as 0.279. In addition, the “ELISA OD at 800ng/ml” value amounted to 0.584, the “ELISA OD at 4ug/ml” value stood at 1.33 and the “ELISA OD at 20ug/ml” value is 1.95.
Turning to B5, the “ELISA OD at 1.28ng/ml” value was found to be 0.072, the “ELISA OD at 6.4ng/ml” value is 0.088, the “ELISA OD at 32ng/ml” value is 0.154 and the “ELISA OD at 160ng/ml” value came to 0.38. Further, the “ELISA OD at 800ng/ml” value amounted to 0.929, the “ELISA OD at 4ug/ml” value came out at 1.19 and the “ELISA OD at 20ug/ml” value came out at 1.35.

The next test addresses T3, SARS-CoV-2-RBD蛋白 (重组6X His标记的RBD蛋白). The experiment in a line: indirect ELISA, ascites, antigen coated 3ug/ml.
As to B2, the “ELISA OD at 稀释倍数 100” value is 1.85, the “ELISA OD at 稀释倍数 500” value was 1.61, the “ELISA OD at 稀释倍数 2500” value came to 1 and the “ELISA OD at 稀释倍数 12500” value stood at 0.297. For the same molecule, the “ELISA OD at 稀释倍数 62500” value is 0.118, the “ELISA OD at 稀释倍数 312500” value was determined as 0.091 and the “ELISA OD at 稀释倍数 1562500” value was determined as 0.081.
Consider B3, for which the “ELISA OD at 稀释倍数 100” value was 1.53, the “ELISA OD at 稀释倍数 500” value was 1.49, the “ELISA OD at 稀释倍数 2500” value was determined as 1.46 and the “ELISA OD at 稀释倍数 12500” value turned out to be 1.06. For the same molecule, the “ELISA OD at 稀释倍数 62500” value stood at 0.508, the “ELISA OD at 稀释倍数 312500” value was determined as 0.155 and the “ELISA OD at 稀释倍数 1562500” value was determined as 0.077.
As for B4, the “ELISA OD at 稀释倍数 100” value turned out to be 1.39, the “ELISA OD at 稀释倍数 500” value was determined as 1.36, the “ELISA OD at 稀释倍数 2500” value was found to be 1.43 and the “ELISA OD at 稀释倍数 12500” value turned out to be 0.84. Also, the “ELISA OD at 稀释倍数 62500” value was determined as 0.373, the “ELISA OD at 稀释倍数 312500” value amounted to 0.121 and the “ELISA OD at 稀释倍数 1562500” value came to 0.072.
For B5, the “ELISA OD at 稀释倍数 100” value turned out to be 1.43, the “ELISA OD at 稀释倍数 500” value is 1.31, the “ELISA OD at 稀释倍数 2500” value came out at 1.4 and the “ELISA OD at 稀释倍数 12500” value was 1.26. The “ELISA OD at 稀释倍数 62500” value was 0.545, the “ELISA OD at 稀释倍数 312500” value was found to be 0.19 and the “ELISA OD at 稀释倍数 1562500” value was 0.084.
